Source: patent EP2385124A2 (Arbor Vita Corporation, dated 2011)
No end group written: not given here. *: point of attachment. Biotin = O=C1N[C@H]2[C@H](CS[C@H]2CCCCC(=O)*)N1

Key:
[1] = biological target: T1, GST-PSD95 PDZ domains 1-3 fusion protein (human, UniProt P78352 58-395); assay: A/G plate assay (TABLE 2)
T1 construct: domain: PDZ domains 1-3 (of 3); AA numbers count on the GenBank entry; not shown: glutathione-S transferase (GST) as encoded by vector pGEX-3X (Pharmacia)

[2] = biological target: T2, GST-KIAA0561 PDZ domain fusion protein (UniProt O60307 948-1038); assay: A/G plate assay (TABLE 2)
T2 construct: domain: PDZ domain 1 (of 1); AA numbers count on the GenBank entry; also called K561; not shown: glutathione-S transferase (GST) as encoded by vector pGEX-3X (Pharmacia)
T2 sequence: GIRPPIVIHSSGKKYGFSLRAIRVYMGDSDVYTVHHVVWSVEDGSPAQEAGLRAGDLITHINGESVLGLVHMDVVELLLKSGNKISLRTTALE

[3] = biological target: T3, GST-PTN-4 PDZ domain fusion protein (UniProt P29074 516-604); assay: A/G plate assay (TABLE 2)
T3 construct: domain: PDZ domain 1 (of 1); AA numbers count on the GenBank entry; also called protein-tyrosine phosphatase meg1; not shown: glutathione-S transferase (GST) as encoded by vector pGEX-3X (Pharmacia)
T3 sequence: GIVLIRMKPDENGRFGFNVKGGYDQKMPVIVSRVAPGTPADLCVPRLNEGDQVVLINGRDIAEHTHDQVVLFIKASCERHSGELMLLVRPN

[4] = biological target: T4, GST-MPP1 PDZ domain fusion protein (UniProt Q00013 67-152); assay: A/G plate assay (TABLE 2)
T4 construct: domain: PDZ domain 1 (of 1); AA numbers count on the GenBank entry; also called 55 Kd erythrocyte membrane protein; not shown: glutathione-S transferase (GST) as encoded by vector pGEX-3X (Pharmacia)
T4 sequence: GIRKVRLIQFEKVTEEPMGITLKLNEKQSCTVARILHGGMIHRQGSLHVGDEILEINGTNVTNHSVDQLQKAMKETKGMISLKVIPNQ

[5] = biological target: T5, GST-TIAM1 PDZ domain fusion protein (UniProt Q13009 844-931); assay: A/G plate assay (TABLE 2)
T5 construct: domain: PDZ 1 (of 1); AA numbers count on the GenBank entry; also called T-lymphoma invasion and metastasis inducing protein 1; not shown: glutathione-S transferase (GST) as encoded by vector pGEX-3X (Pharmacia)

[6] = biological target: T6, GST-KIAA0303 PDZ domain fusion protein (UniProt O15021 1139-1229); assay: A/G plate assay (TABLE 2)
T6 construct: domain: PDZ domain 1 (of 1); AA numbers count on the GenBank entry; also called K303; not shown: glutathione-S transferase (GST) as encoded by vector pGEX-3X (Pharmacia)
T6 sequence: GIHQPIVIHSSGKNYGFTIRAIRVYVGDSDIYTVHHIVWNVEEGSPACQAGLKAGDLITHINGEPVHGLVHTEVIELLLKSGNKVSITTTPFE

[7] = biological target: T1, GST-PSD95 PDZ domains 1-3 fusion protein; assay: G assay, biotinylated peptide titrated on plate-bound GST-PDZ, saturation fit (apparent affinity)
[8] = biological target: T7, GST-AF6 PDZ domain fusion protein (UniProt P55196 1001-1093); assay: A/G plate assay (TABLE 2)
T7 construct: domain: PDZ domain 1 (of 1); AA numbers count on the GenBank entry; also called af-6 protein; not shown: glutathione-S transferase (GST) as encoded by vector pGEX-3X (Pharmacia)
T7 sequence: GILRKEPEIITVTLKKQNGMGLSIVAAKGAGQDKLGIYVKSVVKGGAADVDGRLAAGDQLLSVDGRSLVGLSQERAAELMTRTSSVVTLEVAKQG

[9] = biological target: T8, GST-prIL16 PDZ domains 1-2 fusion protein (UniProt Q14005 1111-1324); assay: A/G plate assay (TABLE 2)
T8 construct: domain: PDZ domain 1-2 (of 2); AA numbers count on the GenBank entry; also called putative interleukin 16 precursor; not shown: glutathione-S transferase (GST) as encoded by vector pGEX-3X (Pharmacia)
T8 sequence: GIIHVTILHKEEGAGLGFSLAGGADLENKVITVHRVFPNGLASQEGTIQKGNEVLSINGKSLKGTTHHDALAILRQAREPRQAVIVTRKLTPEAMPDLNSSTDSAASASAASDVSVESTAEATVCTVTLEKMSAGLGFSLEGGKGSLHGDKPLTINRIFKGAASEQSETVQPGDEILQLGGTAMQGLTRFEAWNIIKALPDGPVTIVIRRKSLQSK

T1 sequence (P78352 other isoform, or with tags, fused parts or gaps): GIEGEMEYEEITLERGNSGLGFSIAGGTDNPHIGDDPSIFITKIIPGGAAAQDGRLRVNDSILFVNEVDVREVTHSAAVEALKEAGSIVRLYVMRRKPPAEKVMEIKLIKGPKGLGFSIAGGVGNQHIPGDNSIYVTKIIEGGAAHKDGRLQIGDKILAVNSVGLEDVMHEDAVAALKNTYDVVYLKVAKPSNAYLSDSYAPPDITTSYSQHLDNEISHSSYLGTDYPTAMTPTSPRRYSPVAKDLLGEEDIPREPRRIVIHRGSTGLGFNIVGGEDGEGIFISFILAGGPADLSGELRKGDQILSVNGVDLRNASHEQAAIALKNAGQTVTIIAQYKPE
T5 sequence (Q13009 other isoform, or with tags, fused parts or gaps): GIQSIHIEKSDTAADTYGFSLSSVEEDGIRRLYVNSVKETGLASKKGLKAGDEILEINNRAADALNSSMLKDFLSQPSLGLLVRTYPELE

## Biotin-KDSRPSFVGSSSGHTSTTL [CDW128B (IL8RB) C-terminal PL peptide AA29.2L]
[1]
  binding result: binds

## Biotin-QATSRNGHSARQHVVADTEL [CD34 C-terminal PL peptide AA7L]
[1]
  binding result: binds

## Biotin-SSKSKSSEESQTFFGLYKL (also called FAS Ligand) [FasL C-terminal PL peptide AA23L-M]
[2]
  binding result: binds

## Biotin-EVICYIEKPGVETLEDSVF [CDW125 (IL5R) C-terminal PL peptide AA28L]
[3]
  binding result: binds

## Biotin-SSAKSSNKNKKNKDKEYYV [Neurexin C-terminal PL peptide AA38L]
[4]
  binding result: binds

## Biotin-PKQANGGAYQKPTKQEEFYA [CD138 C-terminal PL peptide AA18L]
[5]
  binding result: binds

## Biotin-ARKANMKGSYSLVEAQKSKV [VCAM1 C-terminal PL peptide AA17L]
[5]
  binding result: binds
[4]
  binding result: binds
[6]
  binding result: binds

## Biotin-TTNNNPNSAVNIKKIFTDV [KV1.3 C-terminal PL peptide AA33L]
[1]
  binding result: binds

## Biotin-KDITSDSENSNFRNEIQSLV (also called AAI3L) [CD95 (Fas) C-terminal PL peptide AA13L]
[7]
  Kd: 85 µM

## Biotin-TREDIYVNYPTFSRRPKTRV [DNAM-1 C-terminal PL peptide AA22L]
[8]
  binding result: binds
[1]
  binding result: binds

## Biotin-VTSPNKHLGLVTPHKTELV [CD83 C-terminal PL peptide AA47L]
[1]
  binding result: binds

## Biotin-QFMTADETRNLQNVDMKIGV [CD44 C-terminal PL peptide AA9L]
[9]
  binding result: binds
[4]
  binding result: binds

## Biotin-QGDPALQDAGDSSRKEYFI (also called GC) [Glycophorin C C-terminal PL peptide AA37L]
[4]
  binding result: no binding
[8]
  binding result: binds
[1]
  binding result: binds

## Biotin-SVFSIPTLWSPWPPSSSSQL (also called CD3-eta; CD3-η) [CD3n C-terminal PL peptide AA4L]
[1]
  binding result: binds

## Biotin-KKGTYLTDETHREVKFTSL [CD46 (Form 1) C-terminal PL peptide AA10L]
[1]
  binding result: binds
